The text below walks through data of patent US20250289873A1 (BROADWING BIO, published 2025).

Sequences and labels used below:
T1: human CFHL3-His (ATX-P-58) (human, UniProt Q02985 19-330)
T1 construct: also called human CFHR3 protein; CFHR3; not shown: C-terminal His tag (and linker)
T1 sequence (looked up): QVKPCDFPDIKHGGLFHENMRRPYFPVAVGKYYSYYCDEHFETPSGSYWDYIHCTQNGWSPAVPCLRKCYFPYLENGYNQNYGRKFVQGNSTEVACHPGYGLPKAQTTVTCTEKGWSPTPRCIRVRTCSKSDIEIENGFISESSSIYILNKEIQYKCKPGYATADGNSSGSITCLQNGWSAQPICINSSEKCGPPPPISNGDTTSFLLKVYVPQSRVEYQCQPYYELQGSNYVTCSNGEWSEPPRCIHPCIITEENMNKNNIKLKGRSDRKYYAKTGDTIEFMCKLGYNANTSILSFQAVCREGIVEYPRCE

T2: Human CFHL1-Y402H-His (ATX-P-421) (human)
T2 construct: also called human CFHL-1 (Y402H) protein
T2 chain: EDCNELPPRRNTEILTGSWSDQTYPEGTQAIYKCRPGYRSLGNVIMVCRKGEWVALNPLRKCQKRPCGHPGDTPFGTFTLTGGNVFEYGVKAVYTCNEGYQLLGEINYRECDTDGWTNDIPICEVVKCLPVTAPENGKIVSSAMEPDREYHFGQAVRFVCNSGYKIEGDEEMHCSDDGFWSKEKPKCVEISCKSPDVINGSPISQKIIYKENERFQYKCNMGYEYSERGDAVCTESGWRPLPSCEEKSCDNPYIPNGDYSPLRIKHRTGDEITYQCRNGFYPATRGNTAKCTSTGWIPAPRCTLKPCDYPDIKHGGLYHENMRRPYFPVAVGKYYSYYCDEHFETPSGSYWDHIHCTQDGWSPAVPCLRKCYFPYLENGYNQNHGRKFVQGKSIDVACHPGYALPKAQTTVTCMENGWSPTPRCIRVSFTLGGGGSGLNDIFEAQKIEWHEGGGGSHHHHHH

B1: ATX-P-601 (antibody, human IgG1, kappa, N297A, V domains shown)
VH: QVQLVQSGAEVKKPGASVKVSCKASGYTFTSYYMHWVRQAPGQGLEWMGIINPSGGSTNYAQKFQGRLTMTRDTSTNTVYMELSSLRSEDTAVYYCATDQSGGMDVWGKGTTVTVSS
VL: DIQMTQSPSSLSASVGDRVTITCRASQSINIYLNWYQQKPEKDPKLLIYAASSLQSGVPSRFSGSGSGTDFTLTISNLQPEDFATYYCQQSYSTPITFGQGTRLEIKR
B2: ATX-P-560 (antibody, human IgG1, kappa, N297A, V domains shown)
VH: QVQLQQSGPGLVKPSQTLSLTCAISGDSVSSNTAAWNWIRQSPSRGLEWLGRTYYRSKWYNDYAVSVKSRITINPDTSKNQFSLQLSSVTPQDTAIYYCASDNWNNGGPGFDPWGQGTLVTVSS
VL: DIQMTQSPSSVSTSVGDRVTITCRASQGISSWLAWYQQKPGKAPKLLISAASSLQSGVPSRFSGSGSGTDFTLTISTLQPEDFASYYCQQANSFPPTFGQGTRVEIKR
B3: ATX-P-598 (antibody, human IgG1, kappa, N297A, V domains shown)
VH: QVQLQESGPGLVKPSGTLSLTCAVSGGSISSSNWWSWVRQSPGKGLEWIGEIYHSGTTNYNPSLKSRVTISVDKSKNQFSLKLSSATAADTAVYYCARDRLRLGESSSDVFDIWGQGTMVTVSS
VL: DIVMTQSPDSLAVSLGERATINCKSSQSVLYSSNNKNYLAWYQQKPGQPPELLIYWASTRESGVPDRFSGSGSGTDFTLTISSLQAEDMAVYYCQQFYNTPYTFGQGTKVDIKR
B4: ATX-P-582 (antibody, human IgG1, kappa, N297A, V domains shown)
VH: QVQLQESGPGLVKPSGTLSLTCAVSGGSISISKWWSWVRQPPGKGLEWIGEIYHTGSTNYHPSLKSRVTISVDKSKNQFYLKLNSVTAADTAVYYCARDELRLGELSPSLDIWGQGTMVTVSS
VL: DIQMTQSPSSLSASVGDRVTITCRASQNINNYLNWFRQKPGKAPKLLIFAASSLQSGVPSRFSGSESGTDFTLTISSLQPEDFATYYCQQSYSTPLTFGGGTKVEIKR
B5: ATX-P-597 (antibody, human IgG1, kappa, N297A, V domains shown)
VH: QVQLVQSGAEVKKPGASVKVSCKASGYTFTNYYMQWVRQAPGQGLEWLGIIDPSGGSTTYAQKFQGRVTMTRDTSTSTVHMELRSLRSEDTAVYYCARDEGTDRPGWGYWGQGTLVTVSS
VL: DIQMTQSPSSLSASIGDRVTITCRASQSISSYLDWYQRKSGKAPKLLIYAASSLQSGVPSRFSGSGSGTDFTLTISSLQPEDFATYYCQQSYSTPLTFGGGTKVDIKR
B6: ATX-P-591 (antibody, V domains shown)
VH: QVQLVQSGAEVKKPGASVKVSCKASGYTFTSYGISWVRQAPGQGLEWMGWISAYNGNTNYAQKLQGRVTMTTDTSTSTAYMELRSLRSDDTAIYYCTRDLRGTAFDYWGQGTPVTVSS
VL: DIQMTQSPSSLSASVGDRVTITCRASQSINTYLNWYQQKPGKAPKLLIYAASSLQSGVPSRFSGSGSGTDFTLTISSLQPEDFATYSCQHSFTTPFTFGPGTKLEIKR
B7: ATX-P-607 (antibody, human IgG1, kappa, N297A, V domains shown)
VH: QVQLVQSGAEVKKPGASVKVSCKASGYTFTSYYMHWVRQAPGQGLEWMGIINPSGGSTSYAQKFQGRVTMTRDTSTNTVYMELSSLRSEDTAVYYCARDPEYSSAFDIWGQGTMVTVSS
VL: B5 VL with I15V, V19G, S30R, D34N, R38Q, S40P, S93R, L96V, G100P
B8: ATX-P-602 (antibody, human IgG1, kappa, N297A, V domains shown)
VH: not shown
VL: EIVLTQSPGTLSLSPGERATLSCRASQSVSSSYLAWYQQKPGQAPRLLIYGASSRATGIPDRFSGSGSGTQFTLTISSLQSEDFAVYYCQQYGSSPWTFGQGTKVDIKR

Substitutions are numbered along the chain they refer to.

In one experiment the target is T1, human CFHL3-His (ATX-P-58). The experiment can be described thus: Carterra LSA biosensor, mAb printed on chip, cutoff set by isotype control. Here is the method:
(§1) Experiments were also conducted to determine the reactivity of the CFHR4 antibodies with the human CFHR3 protein (FIG. 9). The binding experiments were performed on Carterra LSA with a running buffer of PBS pH 7.40, 1% BSA, 0.05% Tween20. Antibodies were covalently printed on an HC30M chip. Chip was activated with 33 mM s-NHS and 133 mM EDC in 100 mM MES pH 5.5 for 7 minutes. Antibodies at 10 mg/ml in acetic acid buffer pH 4.5 were used for printing for 10 min. The printed chip was then quenched with 1 M ethanolamine pH 8.5 for 7 min. For the reactivity assay, ATX-P-58, human CFHL3-His, at 550 nM was tested with 5 min association followed by 15 min dissociation. Results were processed and analyzed in Carterra LSA Kinetics Software. The data was referenced with the interstitial reference spots and double-referenced to a buffer cycle, and then the responses (nm) after association were reported. Isotype control was used to determine the cutoff response for positive binding.
as §1, with “CFHL-1 (Y402H)” for “CFHR3”, “10).” for “9).”, “ATX-P-421,” for “ATX-P-58,”, “CFHL1-Y402H-His,” for “CFHL3-His,”, “380” for “550”
Take B1: the binding result was “no binding (tested: 550 nM)”.

Regarding B2, the binding result is reported as “no binding (tested: 550 nM)”.

For B3, the binding result is recorded as “no binding (tested: 550 nM)”.

As for B4, the binding result is listed as “no binding (tested: 550 nM)”.

As to B5, the binding result was “no binding (tested: 550 nM)”.

Consider B6, for which the binding result is “no binding (tested: 550 nM)”.

For the molecule B7, the binding result is “no binding (tested: 550 nM)”.

Turning to B8, the binding result was “no binding (tested: 550 nM)”.

A further experiment concerns the target T2, Human CFHL1-Y402H-His (ATX-P-421). Described as above. Here is the method: as §1
as §1, with “CFHL-1 (Y402H)” for “CFHR3”, “10).” for “9).”, “ATX-P-421,” for “ATX-P-58,”, “CFHL1-Y402H-His,” for “CFHL3-His,”, “380” for “550”
With B1, the binding result was “no binding (tested: 380 nM)”.

B2: the binding result is given as “no binding (tested: 380 nM)”.

Take B3: the binding result was “no binding (tested: 380 nM)”.

Consider B5, for which the binding result is recorded as “no binding (tested: 380 nM)”.

On to B7, for which the binding result was “no binding (tested: 380 nM)”.

For B8, the binding result was “no binding (tested: 380 nM)”.

The next experiment shares this target. The experiment can be described thus: Carterra LSA biosensor, mAb printed on chip, human CFHL1-Y402H-His at 380 nM. Here is the method: as §1, with “CFHL-1 (Y402H)” for “CFHR3”, “10).” for “9).”, “ATX-P-421,” for “ATX-P-58,”, “CFHL1-Y402H-His,” for “CFHL3-His,”, “380” for “550”
Take B4: the binding result is given as “binds”.

In the case of B6, the binding result is “binds”.
